Molecular target: GPIIb/IIIa (integrin αIIbβ3)
Assay: cell-based or functional assay

Work on “native contortrostatin (from UniProt Q805F6 419-482) (ligand)” yielded an IC50, inhibition of ADP-induced platelet aggregation of 0.06 µM.

— patent US20060246541A1
